According to US20260001928A1 (CORTERIA PHARMACEUTICALS, priority 2022, published 2026):
*1 amine or outer side, *2 acyl side, *3 side chain or, on linkers, in order; H or OH if unused. Where no end group is shown, it is not given here. Side-chain parts run from the residue outwards. [ ]: non-standard residue; d: D form. The star is where a group is joined. C20 diacid = O=C(O)CCCCCCCCCCCCCCCCCCC(=O)*; γGlu = O=C(O)[C@H](CCC(=O)[*:2])N[*:1]; NMeI = CC[C@H](C)[C@H](NC)C(=O)O; Pentanoyl = CCCCC(=O)*; Aib = CC(C)(N)C(=O)O

B1: SEQ ID NO 218 (peptide)
peptide: [NMeI]VLSLD[dV]PIKLK([γGlu-C20 diacid])KILLEQEKQKEQREQAETN[Aib]QILAQV-NH2
modifications: N-terminus assumed
SMILES: CC[C@H](C)[C@H](NC)C(=O)N[C@H](C(=O)N[C@@H](CC(C)C)C(=O)N[C@@H](CO)C(=O)N[C@@H](CC(C)C)C(=O)N[C@@H](CC(=O)O)C(=O)N[C@@H](C(=O)N1CCC[C@H]1C(=O)N[C@H](C(=O)N[C@@H](CCCCN)C(=O)N[C@@H](CC(C)C)C(=O)N[C@@H](CCCCNC(=O)CC[C@H](NC(=O)CCCCCCCCCCCCCCCCCCC(=O)O)C(=O)O)C(=O)N[C@@H](CCCCN)C(=O)N[C@H](C(=O)N[C@@H](CC(C)C)C(=O)N[C@@H](CC(C)C)C(=O)N[C@@H](CCC(=O)O)C(=O)N[C@@H](CCC(N)=O)C(=O)N[C@@H](CCC(=O)O)C(=O)N[C@@H](CCCCN)C(=O)N[C@@H](CCC(N)=O)C(=O)N[C@@H](CCCCN)C(=O)N[C@@H](CCC(=O)O)C(=O)N[C@@H](CCC(N)=O)C(=O)N[C@@H](CCCNC(=N)N)C(=O)N[C@@H](CCC(=O)O)C(=O)N[C@@H](CCC(N)=O)C(=O)N[C@@H](C)C(=O)N[C@@H](CCC(=O)O)C(=O)N[C@H](C(=O)N[C@@H](CC(N)=O)C(=O)NC(C)(C)C(=O)N[C@@H](CCC(N)=O)C(=O)N[C@H](C(=O)N[C@@H](CC(C)C)C(=O)N[C@@H](C)C(=O)N[C@@H](CCC(N)=O)C(=O)N[C@H](C(N)=O)C(C)C)[C@@H](C)CC)[C@@H](C)O)[C@@H](C)CC)[C@@H](C)CC)C(C)C)C(C)C
B2: SEQ ID NO 219 (peptide)
peptide: Pentanoyl-VLSLD[dV]PIKLK([γGlu-C20 diacid])KILLEQEKQKKQREQAETN[Aib]QILAQV-NH2
SMILES: CCCCC(=O)N[C@H](C(=O)N[C@@H](CC(C)C)C(=O)N[C@@H](CO)C(=O)N[C@@H](CC(C)C)C(=O)N[C@@H](CC(=O)O)C(=O)N[C@@H](C(=O)N1CCC[C@H]1C(=O)N[C@H](C(=O)N[C@@H](CCCCN)C(=O)N[C@@H](CC(C)C)C(=O)N[C@@H](CCCCNC(=O)CC[C@H](NC(=O)CCCCCCCCCCCCCCCCCCC(=O)O)C(=O)O)C(=O)N[C@@H](CCCCN)C(=O)N[C@H](C(=O)N[C@@H](CC(C)C)C(=O)N[C@@H](CC(C)C)C(=O)N[C@@H](CCC(=O)O)C(=O)N[C@@H](CCC(N)=O)C(=O)N[C@@H](CCC(=O)O)C(=O)N[C@@H](CCCCN)C(=O)N[C@@H](CCC(N)=O)C(=O)N[C@@H](CCCCN)C(=O)N[C@@H](CCCCN)C(=O)N[C@@H](CCC(N)=O)C(=O)N[C@@H](CCCNC(=N)N)C(=O)N[C@@H](CCC(=O)O)C(=O)N[C@@H](CCC(N)=O)C(=O)N[C@@H](C)C(=O)N[C@@H](CCC(=O)O)C(=O)N[C@H](C(=O)N[C@@H](CC(N)=O)C(=O)NC(C)(C)C(=O)N[C@@H](CCC(N)=O)C(=O)N[C@H](C(=O)N[C@@H](CC(C)C)C(=O)N[C@@H](C)C(=O)N[C@@H](CCC(N)=O)C(=O)N[C@H](C(N)=O)C(C)C)[C@@H](C)CC)[C@@H](C)O)[C@@H](C)CC)[C@@H](C)CC)C(C)C)C(C)C
B3: SEQ ID NO 216 (peptide)
peptide: [NMeI]VLSLD[dV]PIKLK([γGlu-C20 diacid])KILLEQEAQKKQREQAETN[Aib]QILAQV-NH2
modifications: N-terminus assumed
SMILES: CC[C@H](C)[C@H](NC)C(=O)N[C@H](C(=O)N[C@@H](CC(C)C)C(=O)N[C@@H](CO)C(=O)N[C@@H](CC(C)C)C(=O)N[C@@H](CC(=O)O)C(=O)N[C@@H](C(=O)N1CCC[C@H]1C(=O)N[C@H](C(=O)N[C@@H](CCCCN)C(=O)N[C@@H](CC(C)C)C(=O)N[C@@H](CCCCNC(=O)CC[C@H](NC(=O)CCCCCCCCCCCCCCCCCCC(=O)O)C(=O)O)C(=O)N[C@@H](CCCCN)C(=O)N[C@H](C(=O)N[C@@H](CC(C)C)C(=O)N[C@@H](CC(C)C)C(=O)N[C@@H](CCC(=O)O)C(=O)N[C@@H](CCC(N)=O)C(=O)N[C@@H](CCC(=O)O)C(=O)N[C@@H](C)C(=O)N[C@@H](CCC(N)=O)C(=O)N[C@@H](CCCCN)C(=O)N[C@@H](CCCCN)C(=O)N[C@@H](CCC(N)=O)C(=O)N[C@@H](CCCNC(=N)N)C(=O)N[C@@H](CCC(=O)O)C(=O)N[C@@H](CCC(N)=O)C(=O)N[C@@H](C)C(=O)N[C@@H](CCC(=O)O)C(=O)N[C@H](C(=O)N[C@@H](CC(N)=O)C(=O)NC(C)(C)C(=O)N[C@@H](CCC(N)=O)C(=O)N[C@H](C(=O)N[C@@H](CC(C)C)C(=O)N[C@@H](C)C(=O)N[C@@H](CCC(N)=O)C(=O)N[C@H](C(N)=O)C(C)C)[C@@H](C)CC)[C@@H](C)O)[C@@H](C)CC)[C@@H](C)CC)C(C)C)C(C)C
B4: SEQ ID NO 220 (peptide)
peptide: Pentanoyl-VLSLD[dV]PIKLK([γGlu-C20 diacid])KILLEQEKQK[Aib]QREQAETN[Aib]QILAQV-NH2
SMILES: CCCCC(=O)N[C@H](C(=O)N[C@@H](CC(C)C)C(=O)N[C@@H](CO)C(=O)N[C@@H](CC(C)C)C(=O)N[C@@H](CC(=O)O)C(=O)N[C@@H](C(=O)N1CCC[C@H]1C(=O)N[C@H](C(=O)N[C@@H](CCCCN)C(=O)N[C@@H](CC(C)C)C(=O)N[C@@H](CCCCNC(=O)CC[C@H](NC(=O)CCCCCCCCCCCCCCCCCCC(=O)O)C(=O)O)C(=O)N[C@@H](CCCCN)C(=O)N[C@H](C(=O)N[C@@H](CC(C)C)C(=O)N[C@@H](CC(C)C)C(=O)N[C@@H](CCC(=O)O)C(=O)N[C@@H](CCC(N)=O)C(=O)N[C@@H](CCC(=O)O)C(=O)N[C@@H](CCCCN)C(=O)N[C@@H](CCC(N)=O)C(=O)N[C@@H](CCCCN)C(=O)NC(C)(C)C(=O)N[C@@H](CCC(N)=O)C(=O)N[C@@H](CCCNC(=N)N)C(=O)N[C@@H](CCC(=O)O)C(=O)N[C@@H](CCC(N)=O)C(=O)N[C@@H](C)C(=O)N[C@@H](CCC(=O)O)C(=O)N[C@H](C(=O)N[C@@H](CC(N)=O)C(=O)NC(C)(C)C(=O)N[C@@H](CCC(N)=O)C(=O)N[C@H](C(=O)N[C@@H](CC(C)C)C(=O)N[C@@H](C)C(=O)N[C@@H](CCC(N)=O)C(=O)N[C@H](C(N)=O)C(C)C)[C@@H](C)CC)[C@@H](C)O)[C@@H](C)CC)[C@@H](C)CC)C(C)C)C(C)C
B5: SEQ ID NO 221 (peptide)
peptide: Pentanoyl-VLSLD[dV]PIKLK([γGlu-C20 diacid])KILLEQEAQKKQREQAETN[Aib]QILAQV-NH2
SMILES: CCCCC(=O)N[C@H](C(=O)N[C@@H](CC(C)C)C(=O)N[C@@H](CO)C(=O)N[C@@H](CC(C)C)C(=O)N[C@@H](CC(=O)O)C(=O)N[C@@H](C(=O)N1CCC[C@H]1C(=O)N[C@H](C(=O)N[C@@H](CCCCN)C(=O)N[C@@H](CC(C)C)C(=O)N[C@@H](CCCCNC(=O)CC[C@H](NC(=O)CCCCCCCCCCCCCCCCCCC(=O)O)C(=O)O)C(=O)N[C@@H](CCCCN)C(=O)N[C@H](C(=O)N[C@@H](CC(C)C)C(=O)N[C@@H](CC(C)C)C(=O)N[C@@H](CCC(=O)O)C(=O)N[C@@H](CCC(N)=O)C(=O)N[C@@H](CCC(=O)O)C(=O)N[C@@H](C)C(=O)N[C@@H](CCC(N)=O)C(=O)N[C@@H](CCCCN)C(=O)N[C@@H](CCCCN)C(=O)N[C@@H](CCC(N)=O)C(=O)N[C@@H](CCCNC(=N)N)C(=O)N[C@@H](CCC(=O)O)C(=O)N[C@@H](CCC(N)=O)C(=O)N[C@@H](C)C(=O)N[C@@H](CCC(=O)O)C(=O)N[C@H](C(=O)N[C@@H](CC(N)=O)C(=O)NC(C)(C)C(=O)N[C@@H](CCC(N)=O)C(=O)N[C@H](C(=O)N[C@@H](CC(C)C)C(=O)N[C@@H](C)C(=O)N[C@@H](CCC(N)=O)C(=O)N[C@H](C(N)=O)C(C)C)[C@@H](C)CC)[C@@H](C)O)[C@@H](C)CC)[C@@H](C)CC)C(C)C)C(C)C
B6: SEQ ID NO 217 (peptide)
peptide: [NMeI]VLSLD[dV]PIKLK([γGlu-C20 diacid])KILLEQEKQKAQREQAETN[Aib]QILAQV-NH2
modifications: N-terminus assumed
SMILES: CC[C@H](C)[C@H](NC)C(=O)N[C@H](C(=O)N[C@@H](CC(C)C)C(=O)N[C@@H](CO)C(=O)N[C@@H](CC(C)C)C(=O)N[C@@H](CC(=O)O)C(=O)N[C@@H](C(=O)N1CCC[C@H]1C(=O)N[C@H](C(=O)N[C@@H](CCCCN)C(=O)N[C@@H](CC(C)C)C(=O)N[C@@H](CCCCNC(=O)CC[C@H](NC(=O)CCCCCCCCCCCCCCCCCCC(=O)O)C(=O)O)C(=O)N[C@@H](CCCCN)C(=O)N[C@H](C(=O)N[C@@H](CC(C)C)C(=O)N[C@@H](CC(C)C)C(=O)N[C@@H](CCC(=O)O)C(=O)N[C@@H](CCC(N)=O)C(=O)N[C@@H](CCC(=O)O)C(=O)N[C@@H](CCCCN)C(=O)N[C@@H](CCC(N)=O)C(=O)N[C@@H](CCCCN)C(=O)N[C@@H](C)C(=O)N[C@@H](CCC(N)=O)C(=O)N[C@@H](CCCNC(=N)N)C(=O)N[C@@H](CCC(=O)O)C(=O)N[C@@H](CCC(N)=O)C(=O)N[C@@H](C)C(=O)N[C@@H](CCC(=O)O)C(=O)N[C@H](C(=O)N[C@@H](CC(N)=O)C(=O)NC(C)(C)C(=O)N[C@@H](CCC(N)=O)C(=O)N[C@H](C(=O)N[C@@H](CC(C)C)C(=O)N[C@@H](C)C(=O)N[C@@H](CCC(N)=O)C(=O)N[C@H](C(N)=O)C(C)C)[C@@H](C)CC)[C@@H](C)O)[C@@H](C)CC)[C@@H](C)CC)C(C)C)C(C)C

Key:
[1] = target: T1, CRF1R receptor (UniProt P34998 24-415, limits assumed); assay: cell-based or functional assay
T1 sequence (looked up): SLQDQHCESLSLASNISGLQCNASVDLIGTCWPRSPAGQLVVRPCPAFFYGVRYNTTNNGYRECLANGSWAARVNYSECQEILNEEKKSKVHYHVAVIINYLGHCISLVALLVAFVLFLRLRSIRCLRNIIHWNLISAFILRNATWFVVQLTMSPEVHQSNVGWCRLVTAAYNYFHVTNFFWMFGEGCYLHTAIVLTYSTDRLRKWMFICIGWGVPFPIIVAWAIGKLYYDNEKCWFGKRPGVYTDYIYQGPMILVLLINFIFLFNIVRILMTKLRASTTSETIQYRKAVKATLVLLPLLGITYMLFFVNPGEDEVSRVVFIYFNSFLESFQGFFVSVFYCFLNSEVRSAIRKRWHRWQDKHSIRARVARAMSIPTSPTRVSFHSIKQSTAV

[2] = target: human corticotropin-releasing factor 2a (CRF2a receptor) (human), Q13324; assay: cell-based or functional assay
Chain of human corticotropin-releasing factor 2a (CRF2a receptor) (human), Q13324 (Q13324 20-411): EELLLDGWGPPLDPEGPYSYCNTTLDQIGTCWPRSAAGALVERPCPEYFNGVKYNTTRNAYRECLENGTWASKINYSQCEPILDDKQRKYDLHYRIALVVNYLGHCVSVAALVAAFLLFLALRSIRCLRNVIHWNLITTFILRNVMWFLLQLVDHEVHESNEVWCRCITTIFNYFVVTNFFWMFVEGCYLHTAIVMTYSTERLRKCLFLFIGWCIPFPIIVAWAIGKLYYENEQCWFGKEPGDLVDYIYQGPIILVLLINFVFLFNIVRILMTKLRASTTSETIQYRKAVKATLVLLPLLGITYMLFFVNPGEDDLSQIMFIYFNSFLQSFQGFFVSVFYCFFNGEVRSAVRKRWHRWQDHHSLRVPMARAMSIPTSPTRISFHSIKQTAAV

Row | Binder | Emax (% I) [1] [%] | EC50 [nM] (cAMP) [2] | EC50 [1] [nM]
1 | B1 | 24 | 0.11 | 
2 | B2 | 48 | 0.16 | 222
3 | B3 | 61 | 0.05 | 80.3
4 | B4 | 32 | 0.27 | 
5 | B5 | 79 | 0.18 | 22.5
6 | B6 | 33 | 0.09 | 
